Measured values: patent US20210188994A1

Target: His-tagged FcγRIIIa recombinant protein (UniProt P08637)
Experiment: SPR (BIACORE X100), His-tagged FcγRIIIa captured on anti-His CM5 chip, antibody as analyte, 1:1 Langmuir fit

UniProt P08637, sequence (P08637 17-208 limits assumed): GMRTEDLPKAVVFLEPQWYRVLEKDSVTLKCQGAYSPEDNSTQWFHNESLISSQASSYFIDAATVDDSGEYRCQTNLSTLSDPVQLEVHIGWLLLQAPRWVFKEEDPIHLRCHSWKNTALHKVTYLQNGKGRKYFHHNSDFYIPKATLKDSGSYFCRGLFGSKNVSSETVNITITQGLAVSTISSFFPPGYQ

Kd: 0.0399 µM
koff: 0.0069 s⁻¹
kon: 173000 M⁻¹ s⁻¹
Substance: GAZYVA (obinutuzumab), commercial afucosylated anti-CD20 antibody
